Data on 23 sequences can be found in the DeepSol protein solubility set.

This series in a line: soluble on expression in E. coli; label from the status in PepcDB or PDB records.
With “MGGSHHHHHHGMASMTGGQQMGRTLYDDDDKDRWGSKIVVVGANHAGTACIKTMLTNYGDANEIVVFDQNSNISFLGSGMALWIGEQIAGPEGLFYSDKEELESLGAKVYMESPVQSIDYDAKTVTALVDGKNHVETYDKLIFATGSQPILPPIKGAEIKEGSLEFEATLENLQFVKLYQNSADVIAKLENKDIKRVAVVGAGYIGVELAEAFQRKGKEVVLIDVVDTCLAGYYDRDLTDLMAKNMEEHGIQLAFGETVKEVAGNGKVEKIITDKNEYDVDMVILAVGFRPNTTLGNGKIDLFRNGAFLVNKRQETSIPGVYAIGDCATIYDNATRDTNYIALASNAVRTGIVAAHNACGTDLEGIGVQGSNGISIYGLHMVSTGLTLEKAKRLGFDAAVTEYTDNQKPEFIEHGNFPVTIKIVYDKDSRRILGAQMAAREDVSMGIHMFSLAIQEGVTIEKLALTDIFFLPHFNKPYNYITMAALGAKD”, the “soluble on expression in E. coli” value was “soluble”.
With “MGGVTSKVNVDVVQEQVKKDPVVMYTKTSCTFCNRAKDLFSDVRVAYKEVNLDTLKASQPDDYLGIVNGLVYTTRQTSVPQIFVCGRFIGGYTELDALRNSGHLFEAIAQCTGENSPKE” the entry was “not soluble”.
Take “MGHAHSSSSNGSSQITANPHDEKTKEKVEKLFRQNNRTNRSRSLDNRTQEKLPNRPVGSSHSARFPKTRHIPVPLQGPRKSEEGPNGSISGLSRDDKRIIETCWFKCSQKQLRKCSCDMFWDILHTDEDILRLFRLDHVAPNRLKDNDYFKSHASNLALVLNLVVTNLQDNFDQAQDALQALGYQHLHLIDRTHFQTMYWDIFTDCFERNPPPSFKKGAEREVALKFHRF”: the “soluble on expression in E. coli” value is “not soluble”.
For “MGHHHHHHENLYFQSHLYFQSHMTDCEFGYIYRLAQDYLQCVLQIPQPGSGPSKTSRVLQNVAFSVQKEVEKNLKSCLDNVNVVSVDTARTLFNQVMEKEFEDGIINWGRIVTIFAFEGILIKKLLRQQIAPDVDTYKEISYFVAEFIMNNTGEWIRQNGGWENGFVKKFEPK”, the “soluble on expression in E. coli” value was “soluble”.
On to “MGHHHHHHGGHMSLDEFDLIHSITPRTIHHSSVDVGIGDDAALYTAKHGVQEIVCVDTMVEDVHFKLHYSSPEDIGYKALAVNISDIAAMGGIPKFYLVSLAVPSKWTESEIKAMYEGMNELAKLYHMDLIGGDTVSTADKLVVTVTVIGEIEKGQACLRSLAKPNDIVFVTGEIGSSAAGLSLLLEETNPQNSSVETDYFIHRHKRPEPRVSVGRLCSIFKRAALNDVSDGLASELNEIAEASCVSIEIVESMLPIHSDLPKLHPNWKEWALFGGEDFELTGTVSNEEWEVLKQECAALHLPITKIGYVREKTKSKVILKTDQTSMILEKKGYNHFEGGS”, for which the “soluble on expression in E. coli” value is listed as “soluble”.
With “MGHHHHHHGGHMSLPKQIDHEKRRKQIAEATWRVILERGMEGASARNIAKEAGLSLGALRHYFSTQDELLAFAMKLVQEKVTDRIKDIAVRDLLPKEKVLQILLEMVPTNEETIREMEVWFAFTAYARHKKDMFDASHDGIFSGMRNLIAYLDESDLLKQNADKDIEAERLYALVDGLALHAMLDPVRVNKDRIKRVIMQHVESICVEDTRETQKRHPEGGS”, the “soluble on expression in E. coli” value is given as “soluble”.
With “MGHHHHHHGGHMSLSDDNSHSSDTISNKKGFFSLLLSQLFHGEPKNRDELLALIRDSGQNDLIDEDTRDMLEGVMDIADQRVRDIMIPRSQMITLKRNQTLDECLDVIIESAHSRFPVISEDKDHIEGILMAKDLLPFMRSDAEAFSMDKVLRQAVVVPESKRVDRMLKEFRSQRYHMAIVIDEFGGVSGLVTIEDILELIVGEIEDEYDEEDDIDFRQLSRHTWTVRALASIEDFNEAFGTHFSDEEVDTIGGLVMQAFGHLPARGETIDIDGYQFKVAMADSRRIIQVHVKIPDDSPQPKLDEEGGS” the entry was “soluble”; with “MGHHHHHHHHHHSSGHIDDDDKHMTSLLSQFVSKTDFESYEDFQENFKILVPENFNFAYDVVDVYARDSPEKLAMIWCDDYGNEKIFTFKDLKYYSDKAANFFVKHGIGKGDYVMLTLKSRYDFWYCMLGLHKLGAIAVPATHMLKTRDIVYRIEKAGLKMIVCIAEDDVPEQVDEAHAECGDIPLKKAKVGGDVLEGWIDFRKELEESSPIFERPTGEVSTKNEDICLVYFSSGTAGFPKMVEHDNTYPLGHILTAKYWQNVEDDGLHYTVADSGWGKCVWGKLYGQWIAGCAVFVYDYDRFEAKNMLEKASKYGVTTFCAPPTIYRFLIKEDLSHYNFSTLKYAVVAGEPLNPEVFNRFLEFTGIKLMEGFGQTETVVTIATFPWMEPKPGSIGKPTPGYKIELMDRDGRLCEVGEEGEIVINTMEGKPVGLFVHYGKDPERTEETWHDGYYHTGDMAWMDEDGYLWFVGRADDIIKTSGYKVGPFEVESALIQHPAVLECAITGVPDPVRGQVIKATIVLTKDYTPSDSLKNELQDHVKNVTAPYKYPRIIEFVPELPKTISGKIRRVEIRDKDQSQ”, “soluble”; with “MGHHHHHHHHHHSSGHIEGRHMKLEFMNLLSENKKENYYYCGENKVALVTGAGRGIGREIAKMLAKSVSHVICISRTQKSCDSVVDEIKSFGYESSGYAGDVSKKEEISEVINKILTEHKNVDILVNNAGITRDNLFLRMKNDEWEDVLRTNLNSLFYITQPISKRMINNRYGRIINISSIVGLTGNVGQANYSSSKAGVIGFTKSLAKELASRNITVNAIAPGFISSDMTDKISEQIKKNIISNIPAGRMGTPEEVANLACFLSSDKSGYINGRVFVIDGGLSP”, “soluble”.
As to “MGHHHHHHMLENIRDAVRKFLTGSTPYEKAVDEFIKDLQKSLISSDVNVKLVFSLTAKIKERLNKEKPPSVLERKEWFISIVYDELSKLFGGDKEPNVNPTKLPFIIMLVGVQGSGKTTTAGKLAYFYKKRGYKVGLVAADVYRPAAYDQLLQLGNQIGVQVYGEPNNQNPIEIAKKGVDIFVKNKMDIIIVDTAGRHGYGEETKLLEEMKEMYDVLKPDDVILVIDASIGQKAYDLASRFHQASPIGSVIITKMDGTAKGGGALSAVVATGATIKFIGTGEKIDELETFNAKRFVSRILGMGDIESILEKVKGLEEYDKIQKKMEDVMEGKGKLTLRDVYAQIIALRKMGPLSKVLQHIPGLGIMLPTPSEDQLKIGEEKIRRWLAALNSMTYKELENPNIIDKSRMRRIAEGSGLEVEEVRELLEWYNNMNRLLKMVK”, the “soluble on expression in E. coli” value is “soluble”.
As for “MGHHHHHHMSEFYKLAPVDKKGQPFPFDQLKGKVVLIVNVASKCGFTPQYKELEALYKRYKDEGFTIIGFPCNQFGHQEPGSDEEIAQFCQLNYGVTFPIMKKIDVNGGNEDPVYKFLKSQKSGMLGLRGIKWNFEKFLVDKKGKVYERYSSLTKPSSLSETIEELLKEVE”, the “soluble on expression in E. coli” value is listed as “soluble”.
Then “MGHHHHHHSHAESIKNQMTVKEWEKVFEMSQDKNLYHNLCTSLFPTIHGNDEVKRGVLLMLFGGVPKTTGEGTSLRGDINVCIVGDPSTAKSQFLKHVEEFSPRAVYTSGKASSAAGLTAAVVRDEESHEFVIEAGALMLADNGVCCIDEFDKMDVRDQVAIHEAMEQQTISITKAGVKATLNARTSILAAANPISGHYDRSKSLKQNINLSAPIMSRFDLFFILVDECNEVTDYAIARRIVDLHSRIEESIDRVYSLDDIRRYLLFARQFKPKISKESEDFIVEQYKHLRQRDGSGVTKSSWRITVRQLESMIRLSEAMARMHCCDEVQPKHVKEAFRLLNKSIIRVETPDVNLDQEEE”, with “not soluble”; and “MGHHHHHHSHCDKCEGRGGKKGAVECCPNCRGTGMQIRIHQIGPGMVQQIQSVCMECQGHGERISPKDRCKSCNGR”, with “soluble”; and “MGHHHHHHSHEEEGSPGGREDGFTAEHLAAEAMAADMDPWLVFDARTTPATELDAWLAKYPPSQVTRYGDPGSPNSEPVGWIAVYGQGYSPNSGDVQGLQAAWEALQTSGRPITPGTLRQLAITHHVLSGKWLMHLAPGFKLDHAWAGIARAVVEGRLQVAKVSPRAKEGGRQVICVYTDDFTDRLGVLEADSAIRAAGIKCLLTYKPDVYTYLGIYRANRWHLCPTLYESRFQLGGSARGSRVLDRANNVELT”, with “soluble”.
With “MGHHHHHHSHEPRVNTSALQKIAADMSNIIENLDTRELHFEGEEVDYDVSPSDPKIQEVYIPFSAIYNTQGFKEPNIQTYLSGCPIKAQVLEVERFTSTTRVPSINLYTIELTHGEFKWQVKRKFKHFQEFHRELLKYKAFIRIPIPTRRHTFRRQN”, the “soluble on expression in E. coli” value is “not soluble”.
For the sequence “MGHHHHHHSHKPVPWVEKYRPKCVDEVAFQEEVVAVLKKSLEGADLPNLLFYGPPGTGKTSTILAAARELFGPELFRLRVLELNASDERGIQVVREKVKNFAQLTVSGSRSDGKPCPPFKIVILDEADSMTSAAQAALRRTMEKESKTTRFCLICNYVSRIIEPLTSRCSKFRFKPLSDKIQQQRLLDIAKKENVKISDEGIAYLVKVSEGDLRKAITFLQSATRLTGGKEITEKVITDIAGVIPAEKIDGVFAACQSGSFDKLEAVVKDLIDEGHAATQLVNQLHDVVVENNLSDKQKSIITEKLAEVDKCLADGADEHLQLISLCATVMQQLSQNC”, the “soluble on expression in E. coli” value is reported as “not soluble”.
As to “MGHHHHHHSHMAASFAFLRDVRPYKTSWRVQVKVLHSWCQYTNMTGETLKLVLVNSQGVKIHASVKKDLVSKYVNNLPLNEWTFIETFALNHASGQFRPTGHLYKMSFVTGTQVIRCDS”, the “soluble on expression in E. coli” value was “soluble”.
Regarding “MGHHHHHHSHMAFCAILLVPSLCRMPSLPTSPWAFPVHWAGFMFKPLDWQGNDFFPPQDEVLAPCLGIKTPLKHEPCASLPFSVLFQSSASQSLLGTMGSLSPHLCGHTMCPVNPELPLSFQADHRSAQPDACSPLCHPSSLLPSFHTASLPFSIHAHHSPLPCDLDPPLYLAETVSLLEEWGPPSSCPMQCKLTSHPARLTHLPPCLWGFAVALKPSWAGLAPSLLPPPRMSLCRPLSFLRHQCPWLPWQAHQGLVPWSPSMVAAACIVSPSGHCRCQPFIPHVFLGHGGLTSVSGECG”, the “soluble on expression in E. coli” value was “not soluble”.
Consider “MGHHHHHHSHMAFRQPNTKELKVIRKALSYYGSGDFLSHYALLVKEGEKKEVYGVSKELYGVIGELNPHYAGVKIGEVGRRFRFSLEGTFWLLRNSRNRVWVNERGEMLFLYGRDIFAGSVERASEFGENSIVFVCNRFDDVLGIGRSRHSSDELSNLPEDKVFVENLVDRGEYLRH”, for which the “soluble on expression in E. coli” value was “soluble”.
With “MGHHHHHHSHMDALSPSPAIPSNTDYPGPHSFDVSFQQSSTAKSATWTYSTELKKLYCQIAKTCPIQIKVMTPPPQGAVIRAMPVYKKAEHVTEVVKRCPNHELSREFNEGQIAPPSHLIRVEGNSHAQYVEDPITGRQSVLVPYEPPQVGTEFTTVLYNFMCNSSCVGGMNRRPILIIVTLETRDGQVLGRRCFEARICACPGRDRKADEDSIRKQQVSDSTKNGDGTKRPFRQNTHGIQM” the entry was “not soluble”; with “MGHHHHHHSHMDGTRTSLDIEEYSDTEVQKNQVLTLEEWQDKWVNGKTAFHQEQGHQLLKKHLDTFLKGKSGLRVFFPLCGKAVEMKWFADRGHSVVGVEISELGIQEFFTEQNLSYSEEPITEIPGTKVFKSSSGNISLYCCSIFDLPRTNIGKFDMIWDRGALVAINPGDRKCYADTMFSLLGKKFQYLLCVLSYDPTKHPGPPFYVPHAEIERLFGKICNIRRLEKVDAFEERHKSWGIDCLFEKLYLLTEK”, “soluble”; with “MGHHHHHHSHMDSTTVNYFALFEVISHSFVRKLAPNEFPHKLYIQNYTSAVPGTCLTIRKWLFTTEEEILLNDNDLAVTYFFHQAVDDVKKGYIKAEEKSYQLQKLYEQRKMVMYLNMLRTCEGYNEIIFPHCACDSRRKGHVITAISITHFKLHACTEEGQLENQVIAFEWDEMQRWDTDEEGMAFCFEYARGEKKPRWVKIFTPYFNYMHECFERVFCELKWRKEEY”, “not soluble”.
For “MGHHHHHHSHMGVPYSVLEPVLERCTPDQLYRIEEYNHVLIEETDQLWKVHCHRDFKEERPEEYESWREMYLRLQDAREQRLRVLTKNIQFAHANKP”, the “soluble on expression in E. coli” value is “soluble”.
